Patent publication US20180334496A1 (KODIAK SCIENCES, published 2018)
Changes are numbered by the printed parent chain. Several values for one entry are separate records, joined by “and”; a condition that tells them apart may be missing. Equal values may be shown once.

B1: KCD038 (antibody, V domains shown)
VH: EVQLQQSGPELVKPGTSMKISCKASGYSFADYTMNWVKQSHGKSLEWIGLINPYNGGTSYNQKFMGKATLTVDKSSSTAYMELLSLTSEDSAVYYCARWGTYSHNYDYAMDYWGQGTSVTVSS
VL: DVVMTQTPLSLPVSLGDQASISCRSSQSLVHSNGNTYLYWYFQKPGQSPKFLIYKVSNRFSGISDRFSGSGSGTDFTLKISRVEAEDLGVYFCSQSTHVPPFTFGSGTKLEIK
B2: KCD039 (antibody, V domains shown)
VH: B1 VH with L11M, T16A, M34L, A97T
VL: B1 VL with P12S, F42L, F51L, S64T
B3: KCD050 (antibody, V domains shown)
VH: QVQLKESGPGLVAPSQSLSITCTVSGFSLNSYGVQWVRQPPGQGLEWLVVIWRDGTITYNSALKSRLSINKDNSKSQVFLKMNSLQTDDTAMYYCGRTSHYGNFNYYVMDYWGQGTAVTVSS
VL: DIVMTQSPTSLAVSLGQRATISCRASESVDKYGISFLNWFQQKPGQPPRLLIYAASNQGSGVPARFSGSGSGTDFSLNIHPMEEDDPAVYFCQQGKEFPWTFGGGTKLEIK
B4: KCD052 (antibody, V domains shown)
VH: B3 VH with V49G, T56S, N70R, F104Y
VL: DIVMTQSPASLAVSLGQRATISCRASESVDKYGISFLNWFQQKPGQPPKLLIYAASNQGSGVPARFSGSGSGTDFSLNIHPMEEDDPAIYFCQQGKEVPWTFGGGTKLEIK
B5: KCD008 (antibody, V domains shown)
VH: EVQLQQSGPELVKAGASVKMSCTASGFNIKDTYMHWVKQRPEQGLAWIGRIDPANGNIKYDPKFQGKATITADTSSNTAYLQLSSLTSDDTAVYYCTSAMDYWGQGTSVTVSS
VL: QIVLTQSPEIMSASPGEKVTMTCSARSSVSYMYWYQQKPGSSPRLLIYDTSNLASGVPVRFSGSGSGTSYSLTISRMETEDAATYYCQQWSTYPFTFGSGTKLEIK
B6: KCD210 (antibody, V domains shown)
VH: EVQLQQSGPVLVKPGASVTMSCKASGYTFTEYYMNWVKQSHGKSLDWIGVINPYSGGTSYKQKFKDKATLTVDKSSSTAYMELNGLTSEDSAVYFCVRGGLRRNYFDYWGQGTTLTVSS
VL: EIVLTQSPALMTASPGEKVTITCSVSSSISSTNLHWYQQKSGTSPKPWIFGTSNLASGVPVRFSGSGSGTSYSLTISNMEAEDAATYYCQQWNSYPFTFGTGTKLEIK
B7: KCD065 (antibody, V domains shown)
VH: QVQLQQSGAELARPGASVKMSCKASGYTFTTYTIHWVKQRPGQGLEWIGYINPSSDFTNYNQNFADKATLTADRSSSTAYMQLSSLTSEESAVYYCAIRLGYDRQGWYFDVWGAGTTVTVSS
VL: DIVMTQSHKFLSTSLGDRVSITCKASQDVGSAVAWYQQKPGQSPDLLIYWTFTRHTGVPDRFTGSRSGTDFTLTISNVQSGDLADYFCQQYSNYPLTFGGGTKLEIK
B8: KCD017 (antibody, V domains shown)
VH: DVQLQESGPDLVKPSQSLSLTCTVTDYSITSGYSWHWIRQFPGNKLEWLGYIHSSGNTNYNPSLKSRFSITRDTSKNQFFLQLNSVTSEDTATYYCALHYYGSSFGWYFDVWGAGTTVTVSS
VL: DIVMTQSHKFMSTSVGDRVYITCKASQDVGTAVAWYQQTSGQSPKLLIYWASTRHTGVPDRFTGSGSGTDFTLTLSNVQSEDLADYFCQQYTSYPLTFGAGTKLELK
B9: KCD018 (antibody, V domains shown)
VH: QVQLQQSAAELARPGASVKMSCKASGYTFTSYTVHWVKQRPGQGLEWIGYINPSSGFTDYNQKFKDKTTLTADISSSTAYIQLSSLTSEDSAVYYCARRGVNWSWFAYWGQGTLVTVSA
VL: NIMMTQSPSSLAVSAGEKVTMSCKSSQSVLYSSNQKNYLAWYQQKPGQSPQLLIYWASTRESGVPERFTGSGSGTDFTLTISSVQAEDLAVYYCHQYLSSWTFGGGTKLEIK
B10: KCD135 (antibody, V domains shown)
VH: EVQLQQSGPELVKPGASVRMSCKASGYIFTDYSIHWVKQSHGKSLEWIGYINPNNGGTSYNQKFKGKATLTVNKSSTTAYMELRSLTSEDSAVYFCARDTTIVGDYWGQGTTLTVSS
VL: DIVMTQSQKFMSTSVGDRVSVTCKASQHVGTNVVWYQQKPGQSPKALIYSASYRYSGVPDRFSGSGSGTDFTLTISNVQSEDLAEYFCQQFNSYPLTFGGGTKLEIK
B11: 31S34I54I59D / 54R101V (antibody, V domains shown)
VH: EVQLVESGGGLVQPGGSLRLSCAASGYTFTSYYINWVRQAPGKGLEWIGDINPITGDTDYNADFKRRFTFSLDTSKSTAYLQMNSLRAEDTAVYYCTREGPSFAYWGQGTLVTVSS
VL: DIQLTQSPSSLSASVGDRVTITCRSSQTIVHSNGDTYLEWYQQKPGKAPNLLIRKVSNRFSGVPSRFSGSGSGTDFTLTISSLQPEDFATYYCFQGSHVPVTFGQGTKVEIKR
notes: KCD119 TAF variant
B12: KCD119 TAF heavy chain / KCD119 TAF light chain (antibody, V domains shown)
VH: B11 VH with S31D, I34M, I54N, D59S
VL: DIQLTQSPSSLSASVGDRVTITCRSSQTIVHSNGDTYLEWYQQKPGKAPNLLIYKVSNRFSGVPSRFSGSGSGTDFTLTISSLQPEDFATYYCFQGSHVPPTFGQGTKVEIK
notes: humanized full IgG captured on protein A; also called TAF KCD119
B13: 54V heavy chain / 101V light chain (antibody, V domains shown)
VH: B11 VH with S31D, I34M, I54V, D59S
VL: B12 VL with P101V
notes: IgG
B14: 54V59D heavy chain / 101V light chain (antibody, V domains shown)
VH: B11 VH with S31D, I34M, I54V
VL: B12 VL with P101V
notes: IgG
B15: 54V heavy chain / KCD119 TAF light chain (antibody, V domains shown)
VH: B11 VH with S31D, I34M, I54V, D59S
VL: B12 VL
notes: IgG; also called 54V/wt
B16: 54V59D heavy chain / KCD119 TAF light chain (antibody, V domains shown)
VH: B11 VH with S31D, I34M, I54V
VL: B12 VL
notes: IgG
B17: 34I54I59D84S / 54G101V (antibody, V domains shown)
VH: B11 VH with S31D, N84S
VL: B12 VL with Y54G, P101V
notes: also called 34I54I59D845 / 54G101V
B18: KCD119 TAF / KCD119 TAF (antibody, V domains shown)
VH: B11 VH with S31D, I34M, I54N, D59S
VL: B12 VL
notes: Humanized KCD119; tested as full antibody captured on protein A; also called D19 TAF
B19: 31S34I54I59D84S / 54G101V (antibody, V domains shown)
VH: B11 VH with N84S
VL: B12 VL with Y54G, P101V
notes: KCD119 TAF variant; full antibody captured on protein A; also called 31S34I54I59D845 / 54G101V; 3I534I54I59D84S / 54G101V
B20: 31S34I54I59D84S / 54R101V (antibody, V domains shown)
VH: B11 VH with N84S
VL: B11 VL
notes: KCD119 TAF variant; also called 3I534I54I59D84S / 54R101V

What follows are binders tested against T1, human complement factor D purified from serum (human, UniProt P00746 26-253) (assay: SPR MX96).
T1 construct: serum-purified (CompTech); also called hCFD-Comptech; CFD
T1 sequence (P00746 26-253): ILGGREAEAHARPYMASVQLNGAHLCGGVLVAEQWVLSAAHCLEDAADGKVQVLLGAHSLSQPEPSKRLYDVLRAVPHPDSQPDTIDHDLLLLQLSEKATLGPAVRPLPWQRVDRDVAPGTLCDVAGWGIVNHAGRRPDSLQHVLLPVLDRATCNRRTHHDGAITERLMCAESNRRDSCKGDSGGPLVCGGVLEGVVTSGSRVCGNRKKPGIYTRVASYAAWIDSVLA

Row | Kd [nM] | Binder
1 | 37 | B1
2 | 53 | B2
3 | 2 | B3
4 | 3.1 | B4
5 | 4.4 | B5
6 | 3.5 | B6
7 | 3.3 | B7
8 | 7.8 | B8
9 | 41 | B9
10 | 21 | B10

The binders below were run against T2, recombinant cynomolgus CFD, His-tagged (cynomolgus) (assay: SPR MX96).
T2 construct: also called rcyCFD-His; recombinant Cyno-CFD

Row | Kd [nM] | Binder
11 | 45 | B1
12 | 39 | B2
13 | 8.2 | B3
14 | 10 | B4
15 | 66 | B5
16 | 3.6 | B6
17 | 25 | B7
18 | 11 | B8
19 | 52 | B9
20 | 18 | B10

The binders below were run against T3, recombinant human CFD, His-tagged (human, UniProt P00746 26-253) (assay: SPR MX96).
T3 construct: also called rhCFD-His
T3 sequence (P00746 26-253 limits assumed): as the sequence (P00746 26-253) above

Row | Kd [nM] | Binder
21 | 48 | B1
22 | 43 | B2
23 | 3.1 | B3
24 | 3.7 | B4
25 | 3.2 | B5
26 | 2.9 | B6
27 | 17 | B7
28 | 13 | B8
29 | 41 | B9
30 | 13 | B10

What follows are binders tested against T4, recombinant human CFD mutant 1 (R157A, R207A), His-tagged (human, UniProt P00746 26-253) (assay: SPR MX96).
T4 construct: positions are linear positions in the mature protein; also called rhCFD-mut1-His; Mut1
T4 sequence (P00746 26-253 R182A/R232A limits assumed): as the sequence (P00746 26-253) above, with R157A, R207A counted along it

Row | Kd [nM] | Binder
31 | 84 | B1
32 | 70 | B2
33 | 1.9 | B3
34 | 2.5 | B4
35 | 5.7 | B5
36 | 2.9 | B6
37 | 25 | B7
38 | 10 | B8
39 | 99 | B9
40 | 15 | B10

What follows are binders tested against T5, serum purified human Complement Factor D (human, UniProt P00746 26-253) (assay: SPR Biacore, 25 C).
T5 construct: Serum purified protein flowed over the captured antibodies; also called CFD; human CFD
T5 sequence (P00746 26-253): as the sequence (P00746 26-253) above

Row | Kd [pM] | koff [s⁻¹] | kon [M⁻¹ s⁻¹] | Binder
41 | 5.96 | 7.84e-05 | 1.32e+07 | B11

Each binder was assayed against T5, serum purified human Complement Factor D (assay: SPR Biacore, 37 C).

Row | Kd [pM] | koff [s⁻¹] | kon [M⁻¹ s⁻¹] | Binder
42 | 9.61 | 0.000237 | 2.46e+07 | B11

Each binder was assayed against T1, human complement factor D purified from … (assay: Biacore, protein A capture).

Row | Kd [nM] | koff [s⁻¹] | kon [M⁻¹ s⁻¹] | Binder
43 | 0.23 | 0.00103 | 4.46e+06 | B12
44 | 0.0949 | 0.000463 | 4.88e+06 | B13
45 | 0.0321 | 0.000213 | 6.64e+06 | B14
46 | 0.153 | 0.000627 | 4.09e+06 | B15
47 | 0.0526 | 0.000307 | 5.85e+06 | B16

What follows are binders tested against T5, serum purified human Complement Factor D (assay: SPR Biacore, antibody on protein A chip, single cycle kinetics, 25 C).

Row | Kd | koff | kon | Binder
48 | 6.83 pM | 5.18e-05 s⁻¹ | 7.59e+06 M⁻¹ s⁻¹ | B17
49 | 113 pM | 0.00155 s⁻¹ | 1.38e+07 M⁻¹ s⁻¹ | B18
50 | – | – | 4.42e+06 M⁻¹ s⁻¹ | B19
51 | 7.6 pM and 5.96 pM | 0.000106 s⁻¹ and 7.84e-05 s⁻¹ | 1.39e+07 M⁻¹ s⁻¹ and 1.32e+07 M⁻¹ s⁻¹ | B11
52 | < 0.602 pM | < 1e-05 s⁻¹ | 1.66e+07 M⁻¹ s⁻¹ | B20

Each binder was assayed against T5, serum purified human Complement Factor D (assay: SPR Biacore, antibody on protein A chip, single cycle kinetics, 37 C).

Row | Kd | koff | kon | Binder
53 | 7.74 pM | 0.000112 s⁻¹ | 1.45e+07 M⁻¹ s⁻¹ | B17
54 | 499 pM | 0.00628 s⁻¹ | 1.26e+07 M⁻¹ s⁻¹ | B18
55 | 6.11 pM | 7.36e-05 s⁻¹ | 1.21e+07 M⁻¹ s⁻¹ | B19
56 | 5.83 pM and 9.61 pM | 0.000157 s⁻¹ and 0.000237 s⁻¹ | 2.69e+07 M⁻¹ s⁻¹ and 2.46e+07 M⁻¹ s⁻¹ | B11
57 | 3.92 pM | 0.000137 s⁻¹ | 3.5e+07 M⁻¹ s⁻¹ | B20

Target: T5, serum purified human Complement Factor D
Test: SPR Biacore, antibody on protein A chip, single cycle kinetics, 25 C
Remark: another data set of the same source

Row | Kd [pM] | koff [s⁻¹] | kon [M⁻¹ s⁻¹] | Binder
58 | 6.83 | 5.18e-05 | 7.59e+06 | B17
59 | 113 | 0.00155 | 1.38e+07 | B18
60 | – | – | 4.42e+06 | B19
61 | < 0.602 | < 1e-05 | 1.66e+07 | B20

Target: T5, serum purified human Complement Factor D
Test: SPR Biacore, antibody on protein A chip, single cycle kinetics, 37 C
Remark: another data set of the same source

Row | Kd [pM] | koff [s⁻¹] | kon [M⁻¹ s⁻¹] | Binder
62 | 7.74 | 0.000112 | 1.45e+07 | B17
63 | 499 | 0.00628 | 1.26e+07 | B18
64 | 6.11 | 7.36e-05 | 1.21e+07 | B19
65 | 3.92 | 0.000137 | 3.5e+07 | B20
